The values that follow come from patent publication US20220227882A1 (TRUSTEES OF TUFTS COLLEGE, published 2022).

One test concerns the target T1, E444A (Homo sapiens, UniProt P78325).
T1 construct: expressed on HEK293 cells; also called human ADAM8 point mutant E444A
T1 sequence (ADAM8, looked up): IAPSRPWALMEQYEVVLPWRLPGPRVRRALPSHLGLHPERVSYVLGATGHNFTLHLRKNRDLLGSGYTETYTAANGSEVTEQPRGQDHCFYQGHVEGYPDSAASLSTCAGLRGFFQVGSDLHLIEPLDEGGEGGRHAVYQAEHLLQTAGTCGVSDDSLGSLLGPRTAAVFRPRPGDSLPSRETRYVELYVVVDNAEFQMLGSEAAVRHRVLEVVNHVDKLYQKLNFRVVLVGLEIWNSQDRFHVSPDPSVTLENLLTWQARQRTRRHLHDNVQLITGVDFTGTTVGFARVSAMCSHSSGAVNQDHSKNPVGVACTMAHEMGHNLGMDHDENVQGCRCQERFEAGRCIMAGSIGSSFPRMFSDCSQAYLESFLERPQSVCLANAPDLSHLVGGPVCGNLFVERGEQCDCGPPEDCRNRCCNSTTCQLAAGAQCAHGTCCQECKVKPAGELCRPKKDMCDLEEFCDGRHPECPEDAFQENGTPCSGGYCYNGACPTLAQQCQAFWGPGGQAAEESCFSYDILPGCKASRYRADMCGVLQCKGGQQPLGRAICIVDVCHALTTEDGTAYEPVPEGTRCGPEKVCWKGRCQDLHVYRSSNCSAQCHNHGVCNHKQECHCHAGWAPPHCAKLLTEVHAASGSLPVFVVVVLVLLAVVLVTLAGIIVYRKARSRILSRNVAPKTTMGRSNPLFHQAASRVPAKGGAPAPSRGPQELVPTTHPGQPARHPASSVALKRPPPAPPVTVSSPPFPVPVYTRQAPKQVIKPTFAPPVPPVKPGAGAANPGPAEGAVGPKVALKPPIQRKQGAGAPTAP
The test is described as follows: high-throughput flow cytometry, HEK293 cells with mutant ADAM8, high stringency; range in parentheses. The procedure:
(§1) A variety of experimental parameters were optimized for high-throughput flow cytometry including blocking buffer, and primary and secondary antibody concentrations, to identify the optimal conditions for screening. Through these studies ADP2 and ADP13 were determined to be high affinity binding antibodies.
(§2) Thus, for these studies antigen-binding fragments (Fabs) of ADP2 and ADP13, which bind with lower affinity than the full antibody, were generated. In addition, higher binding stringency conditions were tested, such as increased pH, salinity, and temperature, and/or increased washing, to weaken binding sufficiently to allow identification of critical binding residues in flow cytometry. The final experimental flow cytometry conditions were: primary antibody incubation with ADP2 Fab (0.50 μg/ml), ADP13 Fab (5.00 μg/ml) and Control Ab (0.16 μg/ml) for 60 minutes in flow cytometry buffer containing 10% goat serum in PBS (Ca²⁺ and Mg²⁺ free). […] Samples were washed three times after primary antibody incubation and twice after secondary antibody incubation with PBS (Ca²⁺ and Mg′ free). Next, HEK293 cells expressing WT or mutated ADAM8 proteins or EV DNA were incubated with ADP2 or ADP13 Fabs or Control Ab at their optimal concentrations. Fab binding was detected using Alexa Fluor 488-conjugated secondary antibodies and mean cellular fluorescence determined using the Intellicyt iQue flow cytometry platform. […] This counter-screen strategy facilitates the exclusion of mutants that are locally misfolded or that have an expression defect. Binding of each test Fab to each mutant clone in the alanine scanning library was determined, in duplicate, by high-throughput flow cytometry.
A general note: In flow cytometry, cells or beads pass a laser one at a time.

The next test deals with T2, A462S (Homo sapiens, UniProt P78325).
T2 construct: expressed on HEK293 cells; also called human ADAM8 point mutant A462S
T2 sequence (ADAM8, looked up): T1 sequence (ADAM8, looked up) with A428E, A446S
Described as above. The procedure:
as §1, §2

Numbering of substitutions follows the chain as printed.

B1: ADP13 Fab (Fab, V domains shown)
VH: EVQLQQSGPEMVKPGTSVKISCKASGYTFTDYYINWVKQSHGKSLEWIGDISPNIGGATYNPKFKGKAILTVDKSARTAYMELRSLTSEDSAVYCCTRGGSSYPYFYAMDYWGQGTSVTVSS
VL: DIVMSQSPSSLAVSVGEKVTMSCKSSQSLLYSSNQKKYLAWYQQKPGQSPKLLIYWASTRESGVPDRFTGSGSGTDFTLTISSVKAEDLAVYYCQQFYSYPYTFGGGTKLEINR
For B1, the “Binding Reactivity (% WT)” value in the test with E444A was 70.8 % WT.

B2: ADP2 Fab (Fab, V domains shown)
VH: EVKLVESGGGLVQPGGSLSLSCAASGFSFPDYYMSWVRQPPGKALEWLGFIRDSANGYTTEYIASVKGRFTFSRDNSQSILYLQMNALRAEDSATYYCARYSRYYGMDYWGQGTSVTVSS
VL: SIVMTQTPKILLVSAGDRVTITCKASQTVNYDVAWYQQKPGQSPKPVIYFASNRYTGVPDRFTGSGFGTDFTFTISTVQAEDLAVYFCQQDYSAPWTFGGGTKLEIK
Consider B2, for which, in the test with A462S, the “Binding Reactivity (% WT)” value was 50.1 % WT.
